{"source": "IntAct's records for PubMed 31515488", "parents": {"B1": {"name": "Lebercilin-like protein (Homo sapiens), O95447 (parent)", "chain": "MSLADLTKTNIDEHFFGVALENNRRSAACKRSPGTGDFSRNSNASNKSVDYSRSQCSCGSLSSQYDYSEDFLCDCSEKAINRNYLKQPVVKEKEKKKYNVSKISQSKGQKEISVEKKHTWNASLFNSQIHMIAQRRDAMAHRILSARLHKIKGLKNELADMHHKLEAILTENQFLKQLQLRHLKAIGKYENSQNNLPQIMAKHQNEVKNLRQLLRKSQEKERTLSRKLRETDSQLLKTKDILQALQKLSEDKNLAEREELTHKLSIITTKMDANDKKIQSLEKQLRLNCRAFSRQLAIETRKTLAAQTATKTLQVEVKHLQQKLKEKDRELEIKNIYSHRILKNLHDTEDYPKVSSTKSVQADRKILPFTSMRHQGTQKSDVPPLTTKGKKATGNIDHKEKSTEINHEIPHCVNKLPKQEDSKRKYEDLSGEEKHLEVQILLENTGRQKDKKEDQEKKNIFVKEEQELPPKIIEVIHPERESNQEDVLVREKFKRSMQRNGVDDTLGKGTAPYTKGPLRQRRHYSFTEATENLHHGLPASGGPANAGNMRYSHSTGKHLSNREEMELEHSDSGYEPSFGKSSRIKVKDTTFRDKKSSLMEELFGSGYVLKTDQSSPGVAKGSEEPLQSKESHPLPPSQASTSHAFGDSKVTVVNSIKPSSPTEGKRKIII"}, "B2": {"name": "Methylmalonyl-CoA epimerase, mitochondrial (Homo sapiens), Q96PE7 (parent)", "chain": "MARVLKAAAANAVGLFSRLQAPIPTVRASSTSQPLDQVTGSVWNLGRLNHVAIAVPDLEKAAAFYKNILGAQVSEAVPLPEHGVSVVFVNLGNTKMELLHPLGRDSPIAGFLQKNKAGGMHHICIEVDNINAAVMDLKKKKIRSLSEEVKIGAHGKPVIFLHPKDCGGVLVELEQA"}, "B3": {"name": "Tetratricopeptide repeat protein 5 (Homo sapiens), Q8N0Z6 (parent)", "chain": "MMADEEEEVKPILQKLQELVDQLYSFRDCYFETHSVEDAGRKQQDVQKEMEKTLQQMEEVVGSVQGKAQVLMLTGKALNVTPDYSPKAEELLSKAVKLEPELVEAWNQLGEVYWKKGDVAAAHTCFSGALTHCRNKVSLQNLSMVLRQLRTDTEDEHSHHVMDSVRQAKLAVQMDVHDGRSWYILGNSYLSLYFSTGQNPKISQQALSAYAQAEKVDRKASSNPDLHLNRATLHKYEESYGEALEGFSRAAALDPAWPEPRQREQQLLEFLDRLTSLLESKGKVKTKKLQSMLGSLRPAHLGPCSDGHYQSASGQKVTLELKPLSTLQPGVNSGAVILGKVVFSLTTEEKVPFTFGLVDSDGPCYAVMVYNIVQSWGVLIGDSVAIPEPNLRLHRIQHKGKDYSFSSVRVETPLLLVVNGKPQGSSSQAVATVASRPQCE"}, "B4": {"name": "DNA mismatch repair protein Mlh1 (Homo sapiens), P40692 (parent)", "chain": "MSFVAGVIRRLDETVVNRIAAGEVIQRPANAIKEMIENCLDAKSTSIQVIVKEGGLKLIQIQDNGTGIRKEDLDIVCERFTTSKLQSFEDLASISTYGFRGEALASISHVAHVTITTKTADGKCAYRASYSDGKLKAPPKPCAGNQGTQITVEDLFYNIATRRKALKNPSEEYGKILEVVGRYSVHNAGISFSVKKQGETVADVRTLPNASTVDNIRSIFGNAVSRELIEIGCEDKTLAFKMNGYISNANYSVKKCIFLLFINHRLVESTSLRKAIETVYAAYLPKNTHPFLYLSLEISPQNVDVNVHPTKHEVHFLHEESILERVQQHIESKLLGSNSSRMYFTQTLLPGLAGPSGEMVKSTTSLTSSSTSGSSDKVYAHQMVRTDSREQKLDAFLQPLSKPLSSQPQAIVTEDKTDISSGRARQQDEEMLELPAPAEVAAKNQSLEGDTTKGTSEMSEKRGPTSSNPRKRHREDSDVEMVEDDSRKEMTAACTPRRRIINLTSVLSLQEEINEQGHEVLREMLHNHSFVGCVNPQWALAQHQTKLYLLNTTKLSEELFYQILIYDFANFGVLRLSEPAPLFDLAMLALDSPESGWTEEDGPKEGLAEYIVEFLKKKAEMLADYFSLEIDEEGNLIGLPLLIDNYVPPLEGLPIFILRLATEVNWDEEKECFESLSKECAMFYSIRKQYISEESTLSGQQSEVPGSIPNSWKWTVEHIVYKALRSHILPPKHFTEDGNILQLANLPDLYKVFERC", "partner": "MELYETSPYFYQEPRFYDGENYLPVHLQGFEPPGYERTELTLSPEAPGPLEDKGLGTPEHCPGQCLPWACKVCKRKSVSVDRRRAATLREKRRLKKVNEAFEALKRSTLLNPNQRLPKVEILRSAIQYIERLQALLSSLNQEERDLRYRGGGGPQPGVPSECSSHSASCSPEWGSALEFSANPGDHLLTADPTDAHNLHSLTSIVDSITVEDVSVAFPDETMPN"}, "B5": {"name": "Rieske domain-containing protein (Homo sapiens), Q8TAC1 (parent)", "chain": "MNLDGSAQDPEKREYSSVCVGREDDIKKSERMTAVVHDREVVIFYHKGEYHAMDIRCYHSGGPLHLGDIEDFDGRPCIVCPWHKYKITLATGEGLYQSINPKDPSAKPKWCSKGIKQRIHTVTVDNGNIYVTLSNEPFKCDSDFYATGDFKVIKSSS", "partner": "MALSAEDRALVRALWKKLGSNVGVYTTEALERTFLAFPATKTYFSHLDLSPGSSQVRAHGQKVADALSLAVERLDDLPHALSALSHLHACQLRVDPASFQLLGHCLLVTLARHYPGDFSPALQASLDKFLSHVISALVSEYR"}}}
{"variants_of": "B1", "details": "with tfp11_human TFIP11, Q9UBB9"}
{"variant": "G17S", "effect of a mutation on the interaction": "with no effect"}
{"variants_of": "B1", "details": "with tpm3_human TPM3, P06753"}
{"variant": "G17S", "effect of a mutation on the interaction": "with no effect"}
{"variants_of": "B2", "details": "with atrap_human AGTRAP"}
{"variant": "R143H", "effect of a mutation on the interaction": "with no effect"}
{"variant": "A76V", "effect of a mutation on the interaction": "with no effect"}
{"variants_of": "B3", "details": "with kcc2d_human CAMK2D"}
{"variant": "G424V", "effect of a mutation on the interaction": "with no effect"}
{"variants_of": "B4", "details": "with myog_human MYOG"}
{"variant": "V213M", "effect of a mutation on the interaction": "with no effect"}
{"variant": "S406N", "effect of a mutation on the interaction": "with no effect"}
{"variant": "A441T", "effect of a mutation on the interaction": "with no effect"}
{"variant": "V384D", "effect of a mutation on the interaction": "with no effect"}
{"variant": "S106N", "effect of a mutation on the interaction": "with no effect"}
{"variant": "V326A", "effect of a mutation on the interaction": "with no effect"}
{"variants_of": "B4", "details": "with myog_human MYOG", "remark": "another data set of the same source"}
{"variant": "R69K", "effect of a mutation on the interaction": "with no effect"}
{"variants_of": "B5", "details": "with hbat_human HBQ1, P09105"}
{"variant": "D38A", "effect of a mutation on the interaction": "disrupting interaction strength"}
